T1: GST-PHB (PHABULOSA, HD-ZIPIII) (Arabidopsis thaliana, UniProt O04291 1-852)
T1 sequence: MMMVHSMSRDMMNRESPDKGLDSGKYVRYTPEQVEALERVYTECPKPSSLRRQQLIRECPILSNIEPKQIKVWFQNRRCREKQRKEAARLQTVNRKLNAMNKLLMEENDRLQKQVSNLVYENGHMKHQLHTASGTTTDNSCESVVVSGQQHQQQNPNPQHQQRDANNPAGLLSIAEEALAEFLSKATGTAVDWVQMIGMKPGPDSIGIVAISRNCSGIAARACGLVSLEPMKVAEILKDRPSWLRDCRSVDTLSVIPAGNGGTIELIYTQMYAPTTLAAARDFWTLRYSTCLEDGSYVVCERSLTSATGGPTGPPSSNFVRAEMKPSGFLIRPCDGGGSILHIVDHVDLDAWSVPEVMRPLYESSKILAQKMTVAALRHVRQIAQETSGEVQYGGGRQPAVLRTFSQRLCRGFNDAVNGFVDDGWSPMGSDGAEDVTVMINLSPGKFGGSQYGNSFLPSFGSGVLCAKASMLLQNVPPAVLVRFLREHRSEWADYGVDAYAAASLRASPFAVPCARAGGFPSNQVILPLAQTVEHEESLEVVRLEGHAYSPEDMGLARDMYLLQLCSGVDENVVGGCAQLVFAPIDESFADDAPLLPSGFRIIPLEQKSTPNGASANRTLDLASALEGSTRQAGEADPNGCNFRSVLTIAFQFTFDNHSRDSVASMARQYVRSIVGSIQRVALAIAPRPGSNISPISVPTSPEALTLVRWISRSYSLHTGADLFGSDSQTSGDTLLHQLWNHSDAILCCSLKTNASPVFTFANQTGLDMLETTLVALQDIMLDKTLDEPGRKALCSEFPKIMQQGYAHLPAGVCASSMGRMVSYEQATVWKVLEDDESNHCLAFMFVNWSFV

B1: ABI4 binding motif probe (dsDNA)
DNA 1: TTAGCCGTTATGTAATGATTTATTCTAGTTTCA
DNA 2: TGAAACTAGAATAAATCATTACATAACGGCTAA
B2: BG1 binding motif probe (dsDNA)
DNA 1: AGAAGTTTTGGTAATGATACTGAAACACATTTC
DNA 2: GAAATGTGTTTCAGTATCATTACCAAAACTTCT

Molecular target: T1, GST-PHB (PHABULOSA, HD-ZIPIII)
Assay: EMSA; unlabeled self-competitor at 10x and 100x also tested (gel only); 20 mM Tris-HCl pH 7.5, 300 mM NaCl, 5 mM MgCl2, 0.1% NP-40, 0.5 mM DTT, 20-60 min, room temperature; 6% PAGE in Tris-glycine
Settings: protein: recombinant; tags: GST (N-terminal, pGEX4T-1); chain copies: 2; label: 32P; blunt

Row | Binder | binding result
1 | B1 | binds
2 | B2 | binds

Reference: PMC5094776, “The miR165/166 Mediated Regulatory Module Plays Critical Roles in ABA Homeostasis and Response in Arabidopsis thaliana”
